Results from PMC4873975 (2016).

T1: FcɛRIα (recombinant, soluble) (human, UniProt P12319 26-205)
T1 chain: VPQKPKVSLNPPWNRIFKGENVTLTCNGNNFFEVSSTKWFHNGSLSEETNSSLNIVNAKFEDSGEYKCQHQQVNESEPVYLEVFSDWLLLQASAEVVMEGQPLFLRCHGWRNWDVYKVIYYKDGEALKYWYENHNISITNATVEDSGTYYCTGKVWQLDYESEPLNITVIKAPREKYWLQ


What was measured:
[1] = molecular target: T1, FcɛRIα (recombinant, soluble); assay: SPR; insect-derived IgE-Fc3-4
[2] = molecular target: T1, FcɛRIα (recombinant, soluble); assay: SPR; insect-derived IgE-Fc3-4
[3] = molecular target: T1, FcɛRIα (recombinant, soluble); assay: SPR; mammalian-derived IgE-Fc3-4
[4] = molecular target: T1, FcɛRIα (recombinant, soluble); assay: SPR; mammalian-derived IgE-Fc3-4
[5] = molecular target: T1, FcɛRIα (recombinant, soluble); assay: SPR; mammalian-derived
[6] = molecular target: T1, FcɛRIα (recombinant, soluble); assay: SPR; mammalian-derived

koff [1] | Kd [2] | koff [3] | Kd [4] | koff [5] | Kd [6] | Binder
0.000946 s⁻¹ | 660 pM | 0.00102 s⁻¹ | 933 pM | – | – | IgE-Fc3–4 (wild type) (domain or fragment) CADSNPRGVSAYLSRPSPFDLFIRKSPTITCLVVDLAPSKGTVNLTWSRASGKPVNHSTRKEEKQRNGTLTVTSTLPVGTRDWIEGETYQCRVTHPHLPRALMRSTTKTSGPRAAPEVYAFATPEWPGSRDKRTLACLIQNFMPEDISVQWLHNEVQLPDARHSTTQPRKTKGSGFFVFSRLEVTRAEWEQKDEFICRAVHEAASPSQTVQRAVSVNPGK
– | – | – | – | 0.000773 s⁻¹ | 2260 pM | IgE-R419N-Fc3–4 (domain or fragment, additional N-linked glycan at the site made by R419N (NVT)) CADSNPRGVSAYLSRPSPFDLFIRKSPTITCLVVDLAPSKGTVNLTWSRASGKPVNHSTRKEEKQRNGTLTVTSTLPVGTRDWIEGETYQCNVTHPHLPRALMRSTTKTSGPRAAPEVYAFATPEWPGSRDKRTLACLIQNFMPEDISVQWLHNEVQLPDARHSTTQPRKTKGSGFFVFSRLEVTRAEWEQKDEFICRAVHEAASPSQTVQRAVSVNPGK
